The chains are these.
B1: 9H8 (antibody, V domains shown)
VH: EVKLVESGGGLVQPGGSLKLSCATSGFTFSDYYMYWVRQTPEKRLEWVAQISNGGGNTYYPDTVKGRFTISRDNAKNTLYLQMSRLKSEDTAIYYCSKSYYKYDGWYFDVWGAGTTVTVSS
VL: DIVLTQSPASLAVSLGQRATISCRASESVEYSRTSLIQWYQLKPGQPPKLLIYAASYVESGVPDRFSGSGSGTEFSFNIHPVEEDDIAMYFCQQARKVPWTFGGGTNLEIK
notes: Mouse monoclonal antibody purified from hybridoma supernatant by Protein A; also called 鼠源PD-1单克隆抗体9H8; PD-1杂交瘤抗体9H8
B2: 5H10 (antibody, V domains shown)
VH: EVQLVESGGGLVKPGGSLKLSCAASGFTFSDYGMHWVRQAPEKGLEWVAYISGDSNTIYYADTVKGRFTISRDNAKNTLFLQMTSLRSEDTAMYYCTKRGPYYGYTHYFDYWGQGTTLTVSS
VL: SIVMTQTPKFLLVSAGDRVTMTCKASQSVSNDVVWYQQKPGQSPKLLIYYASKRYTGVPDRFTGNGYGTDFTFTISTVQAEDLAVYFCQQDYSSPWTFGGGTKLEIK
notes: Mouse monoclonal antibody purified from hybridoma supernatant by Protein A; also called 鼠源PD-1单克隆抗体5H10; PD-1杂交瘤抗体5H10
B3: 10A10 (antibody, V domains shown)
VH: EVKLVESGGDLVKPGGSLKLSCAASGFTFNYYDISWVRQTPEKRLEWVATISGGGRYTYYLDNVQGRFTISRDNAKNILYLQMNSLRSDDTALYFCASPYEGAMDYWGQGTSVTVSS
VL: DIVMTQSHKFMSTSIGDGVNITCKASQDVGTAVAWYQQKPGQSPKLLNKWASTRHTGVPDRFTGSGSGTDFTLTINNVQSEDLADYFCQQYSTFPYTFGGGTNLELK
notes: Mouse monoclonal antibody purified from hybridoma supernatant by Protein A; also called 鼠源PD-1单克隆抗体10A10; PD-1杂交瘤抗体10A10
B4: 5F7 (antibody, V domains shown)
VH: EVMLVESGGDLVKPGGSLKLSCAASGFTFSSYMMSWVRQTPEKRLEWVAAISGGGGDTYYPDSVKGRFTISRDNAKNTLYLQMSSLRSEDTALYYCARRVVYAMDCWGQGTSVTVSS
VL: DIQMTQSPASQSASLGESVTITCLASQSIGTWLVWYQQKPGKSPQLLISAATSLADGVPSRFSGSGSGTKFSFKISSLQAEDFVSYYCQQLYIIPWTFGGGTKLEIK
notes: Mouse monoclonal antibody purified from hybridoma supernatant by Protein A; also called 鼠源PD-1单克隆抗体5F7; PD-1杂交瘤抗体5F7
B5: 8D4 (antibody, V domains shown)
VH: EVQLQQSGTVLARPGASVKMSCKTSGYTFTNFWMHWVKQRPGQGLDWIGAIFPGNTDTTYNRKFKDKAKLTAVTSASTAYMELSSLTNEDSAVYYCTRNHYGLDYWGQGTSVTVSS
VL: DIVLTQSPASLAVSLGQRATISCRASESVSIHGTHLMHWYQQKPGQPPKLLIYIASNLGSGVPARFSGSGSETDFTLNIHPVEEEDAATYFCQQSIEDPWTFGGGTKLEIK
notes: Mouse monoclonal antibody purified from hybridoma supernatant by Protein A; also called 鼠源PD-1单克隆抗体8D4; PD-1杂交瘤抗体8D4
B6: 4B5 (antibody, V domains shown)
VH: EVILVESGGDLVKPGGSLKLSCAASGFTFSSYMMSWVRQTPEKRLEWVATISGGGANTYYLDSMKGRFTISRDNAKNILYLQMSSLRSEDTAFYYCARQSDRGFPYWGQGTLVTVSA
VL: DIQMTQSPASQSASLGESVTITCLASQPIGTWLAWYQQKPGTSPQLLIFAATTLTDGVPSRFSGSGSGTKFSFKISSLQAEDFVSYYCQQFSSIPYTFGGGTRLEIK
notes: Mouse monoclonal antibody purified from hybridoma supernatant by Protein A; also called 鼠源PD-1单克隆抗体4B5; PD-1杂交瘤抗体4B5
B7: hu8D4-hIgG4 (antibody, part only; not given: Light chain variable domain, constant regions, V domains shown, part only)
VH: QVQLVQSGAEVKKPGASVKVSCKASGYTFTNFWMHWVRQAPGQRLEWIGAIFPGNTDTTYNRKFKDRATLTADTSASTAYMELSSLRSEDTAVYYCTRNHYGLDYWGQGTLVTVSS
B8: hu9H8-hIgG4 (antibody, V domains shown)
VH: EVQLLESGGGLVQPGGSLRLSCAASGFTFSDYYMYWVRQAPGKGLEWVSQISNGGGNTYYPDTVKGRFTISRDNSKNTLYLQMNSLRAEDTAVYYCSKSYYKYDGWYFDVWGQGTLVTVSS
VL: DIVMTQSPDSLAVSLGERATINCRASESVEYSRTSLIQWYQQKPGQPPKLLIYAASYVESGVPDRFSGSGSGTDFTLTISSLQAEDVAVYYCQQARKVPWTFGQGTKLEIK
notes: Humanised antibody built as IgG4 subtype, expressed in 293 cells; also called 9H8人源化抗体; 人源化抗体9H8

The target in the first assay is T1, 人的PD-1胞外区与人Fc融合蛋白(PD-1-ECD-hFc) (human, UniProt Q15116 25-170).
T1 construct: extracellular domain; Coated on ELISA plates; also called PD-1-hFc; not shown: human Fc
T1 sequence (Q15116 25-170): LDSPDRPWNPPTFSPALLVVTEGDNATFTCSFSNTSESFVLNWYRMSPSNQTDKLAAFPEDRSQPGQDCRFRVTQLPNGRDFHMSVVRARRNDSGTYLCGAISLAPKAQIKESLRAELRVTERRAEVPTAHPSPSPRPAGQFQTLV
In words: ELISA, PD-1-ECD-hFc coated, goat anti-mouse IgG detection.
One may read the EC50 as the concentration giving half of the maximal effect. Lower therefore signals higher potency in that assay. Turning to B1, the response was half-maximal at 0.000511 µg/mL (EC50).
Regarding B2, the EC50 was 0.00109 µg/mL. Against the preceding molecule, the EC50 is about 2.1-fold higher.
Same read-out and setting: in the case of B3 it was 0.00114 µg/mL; in that of B4, 0.00123 µg/mL.
Same read-out and setting: in the case of B5 it was 0.00261 µg/mL; in that of B6, 0.00175 µg/mL.

The target of the next assay is T1, 人的PD-1胞外区与人Fc融合蛋白(PD-1-ECD-hFc). Kind of assay: competition ELISA, coated PD-1-hFc (per table title; figure 7 legend says PD-1-mFc), competitor PD-L1-Biotin. (ELISA stands for enzyme-linked immunosorbent assay.)
For orientation: IC50 means the concentration at which inhibition is half-maximal. Read a high IC50 as weaker potency. As for B7, the IC50 is 0.851 µg/mL.
On the same count and under the same terms, in the case of B8 it was 0.332 µg/mL.

For another assay, the target named is T2, PD-1 on 293T-PD-1 cells (UniProt Q15116 25-288, limits assumed).
T2 construct: whole, on cells; the antibodies are anti-human PD-1
T2 sequence (Q15116 25-288 limits assumed): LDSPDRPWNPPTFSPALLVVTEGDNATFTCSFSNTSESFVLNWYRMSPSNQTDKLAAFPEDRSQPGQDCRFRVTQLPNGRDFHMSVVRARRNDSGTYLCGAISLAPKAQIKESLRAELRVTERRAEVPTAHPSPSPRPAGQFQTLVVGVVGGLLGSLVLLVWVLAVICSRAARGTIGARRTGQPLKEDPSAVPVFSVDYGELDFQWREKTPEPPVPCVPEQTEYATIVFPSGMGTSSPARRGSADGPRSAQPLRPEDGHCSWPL
Kind of assay: FACS on 293T-PD-1 cells, PE goat anti-mouse detection.
B1 showed an EC50 of 0.0203 µg/mL.
Still for that read-out and setting: in the case of B2 it was 0.0643 µg/mL.
For B3, the EC50 is 0.0314 µg/mL. This EC50 lies about 2-fold lower than the previous one.
B4: a half-maximal response (EC50) required 0.0176 µg/mL.
On the same count and under the same terms, in the case of B5 it was 0.0443 µg/mL; in that of B6, 0.04 µg/mL.

Another assay concerns the target T1, 人的PD-1胞外区与人Fc融合蛋白(PD-1-ECD-hFc). Kind of assay: competition ELISA, PD-1-ECD-hFc coated, competitor PD-L1-Biotin.
Turning to B1, the IC50 amounted to 0.319 µg/mL.
Still for that read-out and setting: in the case of B2 it was 0.339 µg/mL; in that of B3, 0.361 µg/mL; in that of B4, 0.324 µg/mL.
On the same count and under the same terms, in the case of B5 it was 0.37 µg/mL; in that of B6, 0.343 µg/mL.

In another assay the target is T2, PD-1 on 293T-PD-1 cells. In words: FACS on 293T-PD-1 cells.
B7 returned an EC50 of 0.311 µg/mL.
B8 registered an EC50 of 0.285 µg/mL.

Another assay addresses T2, PD-1 on 293T-PD-1 cells. Kind of assay: competition FACS on 293T-PD-1 cells, competitor PD-L1-biotin (row head prints EC50, title IC50).
B1 gave an IC50 of 0.00854 µg/mL.
B2 returned an IC50 of 0.0412 µg/mL. This IC50 is about 4.8-fold higher than that of the molecule before.
B3 came in with an IC50 of 0.0276 µg/mL.
Turning to B4, the IC50 came to 0.0181 µg/mL. Against the preceding molecule, the IC50 is about 1.5-fold lower.
Same read-out and setting: in the case of B5 it was 0.0296 µg/mL.
The same measure, in the same setting: in the case of B6 it was 0.0355 µg/mL.

The next assay deals with T3, 人的PD-1胞外区与小鼠Fc融合蛋白(PD-1-ECD-mFc) (human, UniProt Q15116 25-170).
T3 construct: extracellular domain; also called PD-1-mFc; not shown: mouse Fc
T3 sequence (Q15116 25-170): as the sequence (Q15116 25-170) above
In words: ELISA on coated PD-1-mFc (antigen per legend of figure 6).
For B7, the EC50 is 0.0489 µg/mL.
On the same count and under the same terms, in the case of B8 it was 0.00532 µg/mL.

The record behind these values is patent CN114316047A (DONGDA BIOTECHNOLOGY SUZHOU CO LTD, dated 2022).
